Columns and labels:
Assay in all cases: ELISA, antigen coated at 1 ug/ml, binder titrated from 10 ug/ml, OD450
CD3-GITRL BsM_M = molecular target: T1, CD3-GITRL BsM_M
T1 construct: glycosylated; also called anti-CD3/GITRL bispecific molecule of monomeric form

CD3-GITRL BsM_D = molecular target: T2, CD3-GITRL BsM_D
T2 construct: glycosylated, disulfide-linked dimer; also called anti-CD3/GITRL bispecific molecule of dimeric form

CD3-CD70 BsM_D = molecular target: T3, CD3-CD70 BsM_D
T3 construct: glycosylated, disulfide-linked dimer; also called anti-CD3/CD70 bispecific molecule of dimeric form

CD3-CD70 BsM_M = molecular target: T4, CD3-CD70 BsM_M
T4 construct: N-glycosylated; also called anti-CD3/CD70 bispecific molecule of monomeric form

CD3-B7RP-1 BsM_M = molecular target: T5, CD3-B7RP-1 BsM_M
T5 construct: N-glycosylated on the B7RP-1 part; also called anti-CD3/B7RP-1 bispecific molecule of monomeric form

CD3-B7RP-1 BsM_D = molecular target: T6, CD3-B7RP-1 BsM_D
T6 construct: glycosylated, disulfide-linked dimer; also called anti-CD3/B7RP-1 bispecific molecule of dimeric form

CD3-OX40L BsM_D = molecular target: T7, CD3-OX40L BsM_D
T7 construct: glycosylated, disulfide-linked dimer; also called anti-CD3/OX40L bispecific molecule of dimeric form

CD3-OX40L BsM_M = molecular target: T8, CD3-OX40L BsM_M
T8 construct: N-glycosylated; also called anti-CD3/OX40L bispecific molecule of monomeric form

B1: human GITR-hFc recombinant protein (Fc fusion)
chain: QRPTGGPGCGPGRLLLGTGTDARCCRVHTTRCCRDYPGEECCSEWDCMCVQPEFHCGDPCCTTCRHHPCPPGQGVQSQGKFSFGFQCIDCASGTFSGGHEGHCKPWTDCTQFGFLTVFPGNKTHNAVCVPGSPPAE
notes: Purchased from Novoprotein; also called GITR-hFc recombinant antigen; not shown: human Fc (hFc) of the purchased fusion
binding result (CD3-GITRL BsM_M): binds
binding result (CD3-GITRL BsM_D): binds

B2: human CD27-hFc recombinant protein (Fc fusion)
chain: TPAPKSCPERHYWAQGKLCCQMCEPGTFLVKDCDQHRKAAQCDPCIPGVSFSPDHHTRPHCESCRHCNSGLLVRNCTITANAECACRNGWQCRDKECTECDPLPNPSLTARSSQALSPHPQPTHLPYVSEMLEARTAGHMQTLADFRQLPARTLSTHWPPQRSLCSSDFIR
notes: Purchased from Novoprotein; also called CD27-hFc recombinant antigen; not shown: human Fc (hFc) of the purchased fusion
binding result (CD3-CD70 BsM_D): binds
binding result (CD3-CD70 BsM_M): binds

B3: human ICOS-hFc recombinant protein (Fc fusion)
chain: EINGSANYEMFIFHNGGVQILCKYPDIVQQFKMQLLKGGQILCDLTKTKGSGNTVSIKSLKFCHSQLSNNSVSFFLYNLDHSHANYYFCNLSIFDPPPFKVTLTGGYLHIYESQLCCQLK
notes: Purchased from Novoprotein; also called ICOS-hFc recombinant antigen; not shown: human Fc (hFc) of the purchased fusion
binding result (CD3-B7RP-1 BsM_M): binds
binding result (CD3-B7RP-1 BsM_D): binds

B4: human OX40-hFc recombinant protein (Fc fusion)
chain: LHCVGDTYPSNDRCCHECRPGNGMVSRCSRSQNTVCRPCGPGFYNDVVSSKPCKPCTWCNLRSGSERKQLCTATQDTVCRCRAGTQPLDSYKPGVDCAPCPPGHFSPGDNQACKPWTNCTLAGKHTLQPASNSSDAICEDRDPPATQPQETQGPPARPITVQPTEAWPRTSQGPSTRPVEVPGGRA
notes: Purchased from Novoprotein; also called OX40-hFc recombinant antigen; not shown: human Fc (hFc) of the purchased fusion
binding result (CD3-OX40L BsM_D): binds
binding result (CD3-OX40L BsM_M): binds

Source: patent publication US20230242876A1 (SHANGHAI SINOBIO BIOTECH, published 2023)
